Experimental data reported in patent US20130202618A1 (PROGENICS PHARMACEUTICALS, published 2013).

Assays:
Test in all cases: cell-based or functional assay
[1] = target: T1, C. difficile toxin A from strain Pitt 45 (ribotype 027, BI/NAP1/027) (Clostridium difficile strain Pitt 45)
[2] = target: T2, C. difficile toxin A from strain CCL678 (ribotype 027, BI/NAP1/027) (Clostridium difficile strain CCL678)
[3] = target: T3, C. difficile toxin A from strain CD196 (ribotype 027, BI/NAP1/027) (Clostridium difficile strain CD196)
[4] = target: T4, C. difficile toxin A from strain Montreal 5 (ribotype 027, BI/NAP1/027) (Clostridium difficile strain Montreal 5)
[5] = target: T5, C. difficile toxin A from strain Montreal 7.1 (ribotype 027, BI/NAP1/027) (Clostridium difficile strain Montreal …)
[6] = target: T6, C. difficile toxin A from strain HMC553 (ribotype 027, BI/NAP1/027) (Clostridium difficile strain HMC553)
[7] = target: T1, C. difficile toxin A from strain Pitt …; remark: listed apart in the source
[8] = target: C. difficile toxin A from strain UVA30/TL42 (ribotype 014) (Clostridium difficile strain UVA30/TL42)
[9] = target: T2, C. difficile toxin A from strain CCL678 …; remark: listed apart in the source
[10] = target: T3, C. difficile toxin A from strain CD196 …; remark: listed apart in the source
[11] = target: C. difficile toxin A from strain CCL14137 (ribotype 001) (Clostridium difficile strain CCL14137)
[12] = target: Clostridium difficile toxin A (strain VPI 10463) (Clostridium difficile strain VPI 10463, UniProt P16154 1-2710)
Chain of Clostridium difficile toxin A (strain VPI 10463) (P16154 whole entry): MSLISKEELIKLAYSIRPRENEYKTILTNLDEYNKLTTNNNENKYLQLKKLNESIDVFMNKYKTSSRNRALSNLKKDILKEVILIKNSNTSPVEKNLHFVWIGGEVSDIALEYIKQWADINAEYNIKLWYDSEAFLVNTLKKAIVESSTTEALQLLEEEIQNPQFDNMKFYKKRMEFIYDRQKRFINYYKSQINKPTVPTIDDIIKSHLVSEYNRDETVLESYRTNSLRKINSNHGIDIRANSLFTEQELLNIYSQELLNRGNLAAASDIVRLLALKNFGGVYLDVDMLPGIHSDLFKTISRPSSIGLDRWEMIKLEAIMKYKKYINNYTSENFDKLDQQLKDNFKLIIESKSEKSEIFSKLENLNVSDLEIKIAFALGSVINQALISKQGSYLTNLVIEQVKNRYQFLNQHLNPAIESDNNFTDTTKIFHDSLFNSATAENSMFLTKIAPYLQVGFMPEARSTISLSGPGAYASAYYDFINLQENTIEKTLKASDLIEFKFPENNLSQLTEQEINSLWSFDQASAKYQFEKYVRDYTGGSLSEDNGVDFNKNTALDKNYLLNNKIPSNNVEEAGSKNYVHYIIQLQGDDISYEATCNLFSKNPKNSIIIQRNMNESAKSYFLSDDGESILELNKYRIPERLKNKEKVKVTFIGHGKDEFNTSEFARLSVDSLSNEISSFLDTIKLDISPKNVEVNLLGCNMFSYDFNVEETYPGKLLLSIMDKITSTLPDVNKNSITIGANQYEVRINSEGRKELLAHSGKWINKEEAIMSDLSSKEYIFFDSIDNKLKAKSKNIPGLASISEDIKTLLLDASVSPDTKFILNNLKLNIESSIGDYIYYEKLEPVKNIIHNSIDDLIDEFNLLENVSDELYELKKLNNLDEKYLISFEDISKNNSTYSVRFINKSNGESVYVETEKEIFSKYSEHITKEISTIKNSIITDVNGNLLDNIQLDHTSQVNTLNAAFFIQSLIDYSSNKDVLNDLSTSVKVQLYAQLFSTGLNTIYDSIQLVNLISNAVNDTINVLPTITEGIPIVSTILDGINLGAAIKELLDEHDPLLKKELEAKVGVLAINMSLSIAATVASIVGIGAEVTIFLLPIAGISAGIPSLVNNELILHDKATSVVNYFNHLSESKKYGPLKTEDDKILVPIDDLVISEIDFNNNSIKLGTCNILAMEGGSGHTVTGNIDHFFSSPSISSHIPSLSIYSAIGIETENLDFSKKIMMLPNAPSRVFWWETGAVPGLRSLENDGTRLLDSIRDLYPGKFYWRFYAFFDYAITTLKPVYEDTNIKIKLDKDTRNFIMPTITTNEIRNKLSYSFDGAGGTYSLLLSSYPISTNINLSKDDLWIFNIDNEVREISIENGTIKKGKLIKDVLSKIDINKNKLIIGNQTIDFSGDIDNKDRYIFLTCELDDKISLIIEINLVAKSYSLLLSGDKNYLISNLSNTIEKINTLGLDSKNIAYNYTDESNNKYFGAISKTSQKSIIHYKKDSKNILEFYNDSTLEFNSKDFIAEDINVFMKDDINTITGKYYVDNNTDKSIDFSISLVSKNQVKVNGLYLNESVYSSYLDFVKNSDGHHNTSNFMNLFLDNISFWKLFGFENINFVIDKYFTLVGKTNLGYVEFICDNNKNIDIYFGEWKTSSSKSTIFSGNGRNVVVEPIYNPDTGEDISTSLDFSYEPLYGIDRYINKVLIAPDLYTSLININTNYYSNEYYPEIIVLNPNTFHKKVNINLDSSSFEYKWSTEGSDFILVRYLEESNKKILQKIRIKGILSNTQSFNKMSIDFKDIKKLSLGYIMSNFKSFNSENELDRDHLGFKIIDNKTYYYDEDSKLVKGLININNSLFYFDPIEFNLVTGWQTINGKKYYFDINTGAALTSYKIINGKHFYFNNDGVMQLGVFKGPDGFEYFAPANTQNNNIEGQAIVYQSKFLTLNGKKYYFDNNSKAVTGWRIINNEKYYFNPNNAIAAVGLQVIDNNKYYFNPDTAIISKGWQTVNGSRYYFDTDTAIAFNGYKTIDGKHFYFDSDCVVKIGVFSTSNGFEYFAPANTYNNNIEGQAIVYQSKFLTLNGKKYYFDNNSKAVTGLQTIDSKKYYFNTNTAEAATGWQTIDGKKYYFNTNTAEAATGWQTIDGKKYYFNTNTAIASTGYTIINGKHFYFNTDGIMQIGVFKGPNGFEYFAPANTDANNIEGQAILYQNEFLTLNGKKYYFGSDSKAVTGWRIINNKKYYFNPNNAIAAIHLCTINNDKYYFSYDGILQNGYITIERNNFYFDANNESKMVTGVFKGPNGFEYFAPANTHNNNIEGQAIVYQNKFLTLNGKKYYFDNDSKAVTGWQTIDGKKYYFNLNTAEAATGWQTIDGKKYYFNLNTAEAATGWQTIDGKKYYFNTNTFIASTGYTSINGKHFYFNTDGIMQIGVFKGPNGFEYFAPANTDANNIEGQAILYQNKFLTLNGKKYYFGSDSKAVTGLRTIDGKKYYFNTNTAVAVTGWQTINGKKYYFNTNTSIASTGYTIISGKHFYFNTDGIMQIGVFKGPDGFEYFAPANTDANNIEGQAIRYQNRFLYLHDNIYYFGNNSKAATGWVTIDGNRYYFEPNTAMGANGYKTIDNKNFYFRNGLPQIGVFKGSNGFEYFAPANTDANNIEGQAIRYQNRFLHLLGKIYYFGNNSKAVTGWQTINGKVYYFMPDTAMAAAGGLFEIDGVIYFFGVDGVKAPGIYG

[13] = target: C. difficile toxin A from strain UVA17 (ribotype 002) (Clostridium difficile strain UVA17)
[14] = target: C. difficile toxin A from strain Pitt 2 (ribotype 001) (Clostridium difficile strain Pitt 2)
[15] = target: T4, C. difficile toxin A from strain …; remark: listed apart in the source
[16] = target: C. difficile toxin A from strain 630 (ATCC BAA-1382, ribotype 012) (Clostridium difficile strain 630)
[17] = target: T5, C. difficile toxin A from strain …; remark: listed apart in the source
[18] = target: C. difficile toxin A from strain 545 (ATCC 43596, ribotype 012) (Clostridium difficile strain 545 (ATCC …))
[19] = target: T6, C. difficile toxin A from strain HMC553 …; remark: listed apart in the source
[20] = target: C. difficile toxin A from strain MH5 (ribotype 001) (Clostridium difficile strain MH5)
[21] = target: C. difficile toxin A from strain Pitt 07 (ribotype 078) (Clostridium difficile strain Pitt 07)
[22] = target: T7, Clostridium difficile toxin B (strain VPI 10463) (Clostridium difficile strain VPI 10463, UniProt P18177 2-2366)
T7 sequence (P18177 2-2366): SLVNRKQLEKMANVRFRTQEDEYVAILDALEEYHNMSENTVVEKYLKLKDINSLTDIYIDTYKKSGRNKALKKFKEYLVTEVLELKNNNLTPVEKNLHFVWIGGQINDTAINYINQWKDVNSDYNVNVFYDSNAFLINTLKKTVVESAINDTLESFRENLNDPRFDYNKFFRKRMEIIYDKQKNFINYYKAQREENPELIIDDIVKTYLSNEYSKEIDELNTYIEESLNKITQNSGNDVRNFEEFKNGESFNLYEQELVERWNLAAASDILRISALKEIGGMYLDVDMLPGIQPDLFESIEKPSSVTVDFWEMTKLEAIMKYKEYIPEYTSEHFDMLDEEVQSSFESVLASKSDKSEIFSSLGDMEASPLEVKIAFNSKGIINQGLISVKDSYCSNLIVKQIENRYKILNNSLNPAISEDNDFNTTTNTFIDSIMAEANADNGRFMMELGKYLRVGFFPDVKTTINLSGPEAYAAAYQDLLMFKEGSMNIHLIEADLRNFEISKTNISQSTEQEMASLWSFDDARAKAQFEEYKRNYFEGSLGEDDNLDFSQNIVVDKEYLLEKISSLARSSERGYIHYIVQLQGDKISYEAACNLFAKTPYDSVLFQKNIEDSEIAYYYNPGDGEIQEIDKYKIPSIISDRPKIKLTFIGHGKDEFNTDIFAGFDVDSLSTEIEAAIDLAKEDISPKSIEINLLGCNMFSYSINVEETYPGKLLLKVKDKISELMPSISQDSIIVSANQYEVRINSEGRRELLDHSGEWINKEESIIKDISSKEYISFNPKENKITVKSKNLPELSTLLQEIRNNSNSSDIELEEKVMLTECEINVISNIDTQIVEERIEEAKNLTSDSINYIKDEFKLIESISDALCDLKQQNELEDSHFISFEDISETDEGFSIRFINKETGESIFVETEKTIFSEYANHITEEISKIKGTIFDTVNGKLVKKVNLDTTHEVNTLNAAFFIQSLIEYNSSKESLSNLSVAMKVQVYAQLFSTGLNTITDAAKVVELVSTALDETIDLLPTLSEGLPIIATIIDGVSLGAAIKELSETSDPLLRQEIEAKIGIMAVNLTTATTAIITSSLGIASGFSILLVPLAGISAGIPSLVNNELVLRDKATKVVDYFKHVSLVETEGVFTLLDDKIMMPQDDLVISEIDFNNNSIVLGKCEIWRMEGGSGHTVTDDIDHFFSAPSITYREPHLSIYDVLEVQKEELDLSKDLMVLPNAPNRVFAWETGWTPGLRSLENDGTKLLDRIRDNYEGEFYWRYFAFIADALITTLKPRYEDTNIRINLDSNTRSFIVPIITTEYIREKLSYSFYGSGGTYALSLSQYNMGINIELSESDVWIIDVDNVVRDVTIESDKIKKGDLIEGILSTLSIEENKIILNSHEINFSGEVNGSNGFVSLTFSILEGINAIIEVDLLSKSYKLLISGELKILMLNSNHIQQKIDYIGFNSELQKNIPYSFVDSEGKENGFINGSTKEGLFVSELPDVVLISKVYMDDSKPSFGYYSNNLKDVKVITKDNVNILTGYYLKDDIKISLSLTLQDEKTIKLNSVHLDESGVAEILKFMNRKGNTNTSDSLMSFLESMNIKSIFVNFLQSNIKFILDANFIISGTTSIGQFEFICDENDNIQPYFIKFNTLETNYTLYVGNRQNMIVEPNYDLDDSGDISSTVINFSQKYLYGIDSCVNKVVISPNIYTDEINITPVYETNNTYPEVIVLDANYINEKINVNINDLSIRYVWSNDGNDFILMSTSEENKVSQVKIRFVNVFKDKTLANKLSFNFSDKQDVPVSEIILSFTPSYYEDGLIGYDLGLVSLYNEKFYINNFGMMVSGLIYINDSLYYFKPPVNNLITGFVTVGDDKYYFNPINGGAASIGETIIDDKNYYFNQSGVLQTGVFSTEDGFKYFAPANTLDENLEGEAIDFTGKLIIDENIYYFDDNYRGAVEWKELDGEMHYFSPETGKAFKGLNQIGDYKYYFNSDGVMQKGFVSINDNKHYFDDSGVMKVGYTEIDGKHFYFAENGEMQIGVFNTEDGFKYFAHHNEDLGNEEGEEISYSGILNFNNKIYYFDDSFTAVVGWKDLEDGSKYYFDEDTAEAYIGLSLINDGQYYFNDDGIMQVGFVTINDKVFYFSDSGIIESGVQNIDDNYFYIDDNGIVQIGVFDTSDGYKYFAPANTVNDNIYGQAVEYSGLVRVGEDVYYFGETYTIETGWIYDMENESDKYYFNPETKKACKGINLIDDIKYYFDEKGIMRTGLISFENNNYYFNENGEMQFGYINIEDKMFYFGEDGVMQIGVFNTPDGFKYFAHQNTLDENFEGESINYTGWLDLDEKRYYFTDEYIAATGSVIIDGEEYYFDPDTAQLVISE

[23] = target: T7, Clostridium difficile toxin B (strain …); remark: listed apart in the source

B1: humanized anti-C. difficile toxin A monoclonal antibody PA-50 (antibody, V domains shown)
VH: QVQLVQSGAEVKKPGASVKVSCKASGYTFTDYNMDWVRQAPGQRLEWIGDINPKYDIIGHNPKFMGKATITVDKSASTAYMELSSLRSEDTAVYYCARSDRGWYFDVWGQGTLVTVSS
VL: EIVLTQSPATLSLSPGERATLSCRASSSVNYMNWYQQKPGQAPRPRIYATSNLASGVPARFSGSGSGTDYTLTISSLEPEDFAVYYCQQWSSRTFGGGTKLEIKR
[1]
  neutralization activity on T-84 cells relative to comparator mAb CDA-1: > 100 fold
[2]
  neutralization activity on T-84 cells relative to comparator mAb CDA-1: > 100 fold
[3]
  neutralization activity on T-84 cells relative to comparator mAb CDA-1: > 100 fold
[4]
  neutralization activity on T-84 cells relative to comparator mAb CDA-1: > 100 fold
[5]
  neutralization activity on T-84 cells relative to comparator mAb CDA-1: > 100 fold
[6]
  neutralization activity on T-84 cells relative to comparator mAb CDA-1: > 100 fold
[7]
  EC50, neutralization of supernatant cytotoxicity on T-84 cells: 0.043 nM
[8]
  EC50, neutralization of supernatant cytotoxicity on T-84 cells: 0.051 nM
[9]
  EC50, neutralization of supernatant cytotoxicity on T-84 cells: 0.029 nM
[10]
  EC50, neutralization of supernatant cytotoxicity on T-84 cells: 0.061 nM
[11]
  EC50, neutralization of supernatant cytotoxicity on T-84 cells: 0.039 nM
[12]
  EC50, neutralization of supernatant cytotoxicity on T-84 cells: 0.02 nM
[13]
  EC50, neutralization of supernatant cytotoxicity on T-84 cells: 0.026 nM
[14]
  EC50, neutralization of supernatant cytotoxicity on T-84 cells: 0.027 nM
[15]
  EC50, neutralization of supernatant cytotoxicity on T-84 cells: 0.029 nM
[16]
  EC50, neutralization of supernatant cytotoxicity on T-84 cells: 0.054 nM
[17]
  EC50, neutralization of supernatant cytotoxicity on T-84 cells: 0.031 nM
[18]
  EC50, neutralization of supernatant cytotoxicity on T-84 cells: 0.038 nM
[19]
  EC50, neutralization of supernatant cytotoxicity on T-84 cells: 0.029 nM
[20]
  EC50, neutralization of supernatant cytotoxicity on T-84 cells: 0.127 nM
[21]
  EC50, neutralization of supernatant cytotoxicity on T-84 cells: 0.032 nM

B2: humanized anti-C. difficile toxin B monoclonal antibody PA-41 (antibody, V domains shown)
VH: QVQLVQSGAEVKKPGASVKVSCKASGYPFTNYFMHWVRQAPGQRLEWIGRINPYNGATSYSLNFRDKATITLDKSASTAYMELSSLRSEDTAVYYCARSTITSPLLDFWGQGTLVTVSS
VL: EIVLTQSPATLSLSPGERATLSCRASQSVGTSIHWYQQKPGQAPRLLIKFASESISGIPARFSGSGSGTDFTLTISSLEPEDFAVYYCQQSNKWPFTFGQGTKLEIKR
[22]
  EC50, neutralization of toxin B cytotoxicity on CHO-K1 cells (toxin B 2 pg/mL): 6000 nM
  EC50, neutralization on IMR-90 cells: 5000 nM
[23]
  EC50, neutralization of supernatant cytotoxicity on CHO-K1 cells: 0.0077 nM
